Results on 21 molecules are retold here after patent US20240400696A1.

The chains are these.
B1: AC3424 (bispecific antibody, V domains shown)
VH: EVQLLESGGGIVQPGGSLKLSCAASGFTFNTYAMNWVRQAPGKGLEWVARIRSKYNNYATYYADSVKGRFTISRDDSKNTVYLQMNNLKTEDTAVYYCVRHENFGNSYVSWFAHWGQGTLVTVSS
VL: ELVVTQEPSLTVSPGGTVTLTCRSSNGAVTSSNYANWVQQKPGQAPRGLIGGTNKRAPGTPARFSGSLLGGKAALTLSGVQPEDEAVYYCALWYPNLWVFGGGTKLTVL
B2: AC3371 (bispecific antibody, V domains shown)
VH: EVQLLESGGGIVQPGGSLKLSCAASGFTFNTYAMNWVRQAPGKGLEWGARIRSKYNNYATYYADSVKDRFTISRDDSKNTVYLQMNNLKTEDTAVYYCVRHENFGNSYVSWFAHWGQGTLVTVSS
VL: ELVVTQEPSLTVSPGGTVTLTCRSSNGAVTSSNYANWVQQKPGQAPRGLIGGTNKRAPGTPARFSGSLLGGKAALTLSGVQPEDEAVYYCALWYPNLWVFGGGTKLTVL
B3: AC3428 (bispecific antibody, V domains shown)
VH: EVQLLESGGGIVQPGGSLKLSCAASGFTFNTYAMNWVRQAPGKGLEWVARIRSKYNNYATYYADSVKDRFTISRDDSKNTVYLQMNELKTEDTAVYYCVRHENFGNSYVSWFAHWGQGTLVTVSS
VL: ELVVTQEPSLTVSPGGTVTLTCRSSNGAVTSSNYANWVQQKPGQAPRGLIGGTNKRAPGTPARFSGSLLGGKAALTLSGVQPEDEAVYYCALWYPNLWVFGGGTKLTVL
B4: AC3427 (bispecific antibody, V domains shown)
VH: EVQLLESGGGIVQPGGSLKLSCAASGFTFNTYAMNWVRQAPGKGLEWVARIRSKYNNYATYYADSVKDRFTISRDDSKNTVSLQMNNLKTEDTAVYYCVRHENFGNSYVSWFAHWGQGTLVTVSS
VL: ELVVTQEPSLTVSPGGTVTLTCRSSNGAVTSSNYANWVQQKPGQAPRGLIGGTNKRAPGTPARFSGSLLGGKAALTLSGVQPEDEAVYYCALWYPNLWVFGGGTKLTVL
B5: AC3436 (bispecific antibody, V domains shown)
VH: EVQLLESGGGIVQPGGSLKLSCAASGFTFNTYAMNWVRQAPGKGLEWVARIRSKYNNYATYYADSVKDRFTISRDDSKNTVYLQMNNLKTEDTAVYYCVRHENFGNSYVSWFAHWGQGTLVTVSS
VL: ELVVTQEPSLTVSPGGTVTLTCRSSNGAVTSSNYANWVQQKPGQAPRGLIGGTNKRAPGTPARFSGSSLGGKAALTLSGVQPEDEAVYYCALWYPNLWVFGGGTKLTVL
B6: AC3367 (bispecific antibody, V domains shown)
VH: EVQLLESGGGIVQPGGSLKLSCAASGFTFNTYAMNWVRQAPGKGLEDVARIRSKYNNYATYYADSVKDRFTISRDDSKNTVYLQMNNLKTEDTAVYYCVRHENFGNSYVSWFAHWGQGTLVTVSS
VL: ELVVTQEPSLTVSPGGTVTLTCRSSNGAVTSSNYANWVQQKPGQAPRGLIGGTNKRAPGTPARFSGSLLGGKAALTLSGVQPEDEAVYYCALWYPNLWVFGGGTKLTVL
B7: AC3433 (bispecific antibody, V domains shown)
VH: EVQLLESGGGIVQPGGSLKLSCAASGFTFNTYAMNWVRQAPGKGLEWVARIRSKYNNYATYYADSVKDRFTISRDDSKNTVYLQMNNLKTEDTAVYYCVRHENFGNSYVSWFAHWGQGTLVTVSS
VL: ELVVTQEPSLTVSPGGTVTLTCRSSNGAVTSSNYANWVQQKPGQAPRGLIGGTNKRAPGTPARFSGSLQGGKAALTLSGVQPEDEAVYYCALWYPNLWVFGGGTKLTVL
B8: AC3430 (bispecific antibody, V domains shown)
VH: EVQLLESGGGIVQPGGSLKLSCAASGFTFNTYAMNWVRQAPGKGLEWVARIRSKYNNYATYYADSVKDRFTISRDDSKNTVYLQMNSLKTEDTAVYYCVRHENFGNSYVSWFAHWGQGTLVTVSS
VL: ELVVTQEPSLTVSPGGTVTLTCRSSNGAVTSSNYANWVQQKPGQAPRGLIGGTNKRAPGTPARFSGSLLGGKAALTLSGVQPEDEAVYYCALWYPNLWVFGGGTKLTVL
B9: AC3434 (bispecific antibody, V domains shown)
VH: EVQLLESGGGIVQPGGSLKLSCAASGFTFNTYAMNWVRQAPGKGLEWVARIRSKYNNYATYYADSVKDRFTISRDDSKNTVYLQMNNLKTEDTAVYYCVRHENFGNSYVSWFAHWGQGTLVTVSS
VL: ELVVTQEPSLTVSPGGTVTLTCRSSNGAVTSSNYANWVQQKPGQAPRGLIGGTNKRAPGTPARFSGSLLEGKAALTLSGVQPEDEAVYYCALWYPNLWVFGGGTKLTVL
B10: AC3437 (bispecific antibody, V domains shown)
VH: EVQLLESGGGIVQPGGSLKLSCAASGFTFNTYAMNWVRQAPGKGLEWVARIRSKYNNYATYYADSVKDRFTISRDDSKNTVYLQMNNLKTEDTAVYYCVRHENFGNSYVSWFAHWGQGTLVTVSS
VL: ELVVTQEPSLTVSPGGTVTLTCRSSNGAVTSSNYANWVQQKPGQAPRGLIGGTNKRAPGTPARFSGSKLGGKAALTLSGVQPEDEAVYYCALWYPNLWVFGGGTKLTVL
B11: AC3368 (bispecific antibody, V domains shown)
VH: EVQLLESGGGIVQPGGSLKLSCAASGFTFNTYAMNWVRQAPGKGLEEVARIRSKYNNYATYYADSVKDRFTISRDDSKNTVYLQMNNLKTEDTAVYYCVRHENFGNSYVSWFAHWGQGTLVTVSS
VL: ELVVTQEPSLTVSPGGTVTLTCRSSNGAVTSSNYANWVQQKPGQAPRGLIGGTNKRAPGTPARFSGSLLGGKAALTLSGVQPEDEAVYYCALWYPNLWVFGGGTKLTVL
B12: AC3426 (bispecific antibody, V domains shown)
VH: EVQLLESGGGIVQPGGSLKLSCAASGFTFNTYAMNWVRQAPGKGLEWVARIRSKYNNYATYYADSVKDRFTISRDDSKNTVGLQMNNLKTEDTAVYYCVRHENFGNSYVSWFAHWGQGTLVTVSS
VL: ELVVTQEPSLTVSPGGTVTLTCRSSNGAVTSSNYANWVQQKPGQAPRGLIGGTNKRAPGTPARFSGSLLGGKAALTLSGVQPEDEAVYYCALWYPNLWVFGGGTKLTVL
B13: AC3370 (bispecific antibody, V domains shown)
VH: EVQLLESGGGIVQPGGSLKLSCAASGFTFNTYAMNWVRQAPGKGLEWEARIRSKYNNYATYYADSVKDRFTISRDDSKNTVYLQMNNLKTEDTAVYYCVRHENFGNSYVSWFAHWGQGTLVTVSS
VL: ELVVTQEPSLTVSPGGTVTLTCRSSNGAVTSSNYANWVQQKPGQAPRGLIGGTNKRAPGTPARFSGSLLGGKAALTLSGVQPEDEAVYYCALWYPNLWVFGGGTKLTVL
B14: AC3429 (bispecific antibody, V domains shown)
VH: EVQLLESGGGIVQPGGSLKLSCAASGFTFNTYAMNWVRQAPGKGLEWVARIRSKYNNYATYYADSVKDRFTISRDDSKNTVYLQMNQLKTEDTAVYYCVRHENFGNSYVSWFAHWGQGTLVTVSS
VL: ELVVTQEPSLTVSPGGTVTLTCRSSNGAVTSSNYANWVQQKPGQAPRGLIGGTNKRAPGTPARFSGSLLGGKAALTLSGVQPEDEAVYYCALWYPNLWVFGGGTKLTVL
B15: AC3435 (bispecific antibody, V domains shown)
VH: EVQLLESGGGIVQPGGSLKLSCAASGFTFNTYAMNWVRQAPGKGLEWVARIRSKYNNYATYYADSVKDRFTISRDDSKNTVYLQMNNLKTEDTAVYYCVRHENFGNSYVSWFAHWGQGTLVTVSS
VL: ELVVTQEPSLTVSPGGTVTLTCRSSNGAVTSSNYANWVQQKPGQAPRGLIGGTNKRAPGTPARFSGSLDGGKAALTLSGVQPEDEAVYYCALWYPNLWVFGGGTKLTVL
B16: AC3369 (bispecific antibody, V domains shown)
VH: EVQLLESGGGIVQPGGSLKLSCAASGFTFNTYAMNWVRQAPGKGLEWAARIRSKYNNYATYYADSVKDRFTISRDDSKNTVYLQMNNLKTEDTAVYYCVRHENFGNSYVSWFAHWGQGTLVTVSS
VL: ELVVTQEPSLTVSPGGTVTLTCRSSNGAVTSSNYANWVQQKPGQAPRGLIGGTNKRAPGTPARFSGSLLGGKAALTLSGVQPEDEAVYYCALWYPNLWVFGGGTKLTVL
B17: AC3439 (bispecific antibody, V domains shown)
VH: EVQLLESGGGIVQPGGSLKLSCAASGFTFNTYAMNWVRQAPGKGLEWVARIRSKYNNYATYYADSVKDRFTISRDDSKNTVYLQMNNLKTEDTAVYYCVRHENFGNSYVSWFAHWGQGTLVTVSS
VL: ELVVTQEPSLTVSPGGTVTLTCRSSNGAVTSSNYANWVQQKPGQAPRGLIGGTNKRAPGTPARFSGSTLGGKAALTLSGVQPEDEAVYYCALWYPNLWVFGGGTKLTVL
B18: AC3431 (bispecific antibody, V domains shown)
VH: EVQLLESGGGIVQPGGSLKLSCAASGFTFNTYAMNWVRQAPGKGLEWVARIRSKYNNYATYYADSVKDRFTISRDDSKNTVYLQMNYLKTEDTAVYYCVRHENFGNSYVSWFAHWGQGTLVTVSS
VL: ELVVTQEPSLTVSPGGTVTLTCRSSNGAVTSSNYANWVQQKPGQAPRGLIGGTNKRAPGTPARFSGSLLGGKAALTLSGVQPEDEAVYYCALWYPNLWVFGGGTKLTVL
B19: AC3438 (bispecific antibody, V domains shown)
VH: EVQLLESGGGIVQPGGSLKLSCAASGFTFNTYAMNWVRQAPGKGLEWVARIRSKYNNYATYYADSVKDRFTISRDDSKNTVYLQMNNLKTEDTAVYYCVRHENFGNSYVSWFAHWGQGTLVTVSS
VL: ELVVTQEPSLTVSPGGTVTLTCRSSNGAVTSSNYANWVQQKPGQAPRGLIGGTNKRAPGTPARFSGSNLGGKAALTLSGVQPEDEAVYYCALWYPNLWVFGGGTKLTVL
B20: AC3372 (bispecific antibody, V domains shown)
VH: EVQLLESGGGIVQPGGSLKLSCAASGFTFNTYAMNWVRQAPGKGLEWSARIRSKYNNYATYYADSVKDRFTISRDDSKNTVYLQMNNLKTEDTAVYYCVRHENFGNSYVSWFAHWGQGTLVTVSS
VL: ELVVTQEPSLTVSPGGTVTLTCRSSNGAVTSSNYANWVQQKPGQAPRGLIGGTNKRAPGTPARFSGSLLGGKAALTLSGVQPEDEAVYYCALWYPNLWVFGGGTKLTVL
B21: AC3425 (bispecific antibody, V domains shown)
VH: EVQLLESGGGIVQPGGSLKLSCAASGFTFNTYAMNWVRQAPGKGLEWVARIRSKYNNYATYYADSVKDRFTISRDDSKNTVDLQMNNLKTEDTAVYYCVRHENFGNSYVSWFAHWGQGTLVTVSS
VL: ELVVTQEPSLTVSPGGTVTLTCRSSNGAVTSSNYANWVQQKPGQAPRGLIGGTNKRAPGTPARFSGSLLGGKAALTLSGVQPEDEAVYYCALWYPNLWVFGGGTKLTVL

CD3, sequence (P07766 23-126): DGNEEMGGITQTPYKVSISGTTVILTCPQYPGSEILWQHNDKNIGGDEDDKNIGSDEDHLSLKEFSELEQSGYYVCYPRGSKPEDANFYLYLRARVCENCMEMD

The experiment has as its target CD3. Description: Octet, crude lysate. (Biolayer interferometry detects binding as a change in optical thickness at a sensor tip.)
The Kd is a measure of binding affinity in units of concentration. Read a low Kd as higher affinity. B1: the Kd was determined as 5.4 nM.

Molecule B2 displayed a Kd of 71.5 nM.

Molecule B3 displayed a dissociation constant (Kd) of 5.9 nM.

On to B4, for which the Kd came out at 9.6 nM.

B5 had a Kd of 7.3 nM.

For B6, the equilibrium dissociation constant (Kd) was found to be 40.2 nM.

The molecule B7 returned a Kd of 4.6 nM.

In the case of B8, the Kd was found to be 4.8 nM.

B9 displayed a Kd of 4.9 nM.

In the case of B10, the Kd is 3.2 nM. This Kd lies about 1.5-fold lower than the previous one.

The molecule B11 had a Kd of 18.1 nM. This Kd is about 5.7-fold higher than that of the molecule before.

As for B12, the Kd was 121 nM.

As to B13, the dissociation constant Kd is 165 nM.

Regarding B14, the Kd came out at 7.1 nM. This Kd lies about 23-fold lower than the previous one.

The molecule B15 displayed a Kd of 6.1 nM.

B16 gave a Kd of 8.3 nM.

Take B17: the Kd came out at 8.9 nM. The Kd values of the last two molecules are within 1.5-fold of each other.

B18 displayed a Kd of 5.2 nM. This Kd is about 1.7-fold lower than that of the molecule before.

B19 returned a Kd of 8.3 nM. Against the preceding molecule, the Kd is about 1.6-fold higher.

On to B20, for which the Kd was 11.2 nM.

On to B21, for which the Kd was determined as 9.8 nM.
